Measured values taken from patent publication US20250268939A1.

Molecular target: BAFF-R Liama IgG2b Fc Tag recombinant protein (Acro, Cat. No.: BAR-H5258) (UniProt Q96RJ3)
Test: flow cytometry; control T cells expressing only EGFRt incubated with BAFF-R llama IgG2b Fc protein at 10 ug/mL, detected with FITC-anti llama IgG

Sequence of UniProt Q96RJ3 (Q96RJ3 7-71): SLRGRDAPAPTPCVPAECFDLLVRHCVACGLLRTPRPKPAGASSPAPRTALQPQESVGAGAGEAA

Substance: EGFRt (from UniProt P00533 334-668) (receptor)
- positive rate: 0.65%
